{"source": "paper PMC7538550", "target": "FMDV A2001 Argentina capsid protomer (VP0, VP3 and VP1 cut from the polyprotein P12A by protease 3C) (Foot-and-mouth disease virus, serotype A, A2001 Argentina strain)", "assay": "sucrose gradient ultracentrifugation with ELISA of the fractions"}
{"substance": "FMDV A2001 Argentina capsid protomer (VP0, VP3 and VP1 cut from the polyprotein P12A by protease 3C) (complex)", "values": [{"measurement": "percent of the antigen present as complete empty capsids (75s)", "result": 84, "unit": "%"}]}
